Assay [1] addresses T1, human CD30 (human, UniProt P28908 19-595).
T1 construct: The same molecule is used for CD30 on HL/ALCL/NHL cell lines; also called huCD30; TNFRSF8
T1 sequence: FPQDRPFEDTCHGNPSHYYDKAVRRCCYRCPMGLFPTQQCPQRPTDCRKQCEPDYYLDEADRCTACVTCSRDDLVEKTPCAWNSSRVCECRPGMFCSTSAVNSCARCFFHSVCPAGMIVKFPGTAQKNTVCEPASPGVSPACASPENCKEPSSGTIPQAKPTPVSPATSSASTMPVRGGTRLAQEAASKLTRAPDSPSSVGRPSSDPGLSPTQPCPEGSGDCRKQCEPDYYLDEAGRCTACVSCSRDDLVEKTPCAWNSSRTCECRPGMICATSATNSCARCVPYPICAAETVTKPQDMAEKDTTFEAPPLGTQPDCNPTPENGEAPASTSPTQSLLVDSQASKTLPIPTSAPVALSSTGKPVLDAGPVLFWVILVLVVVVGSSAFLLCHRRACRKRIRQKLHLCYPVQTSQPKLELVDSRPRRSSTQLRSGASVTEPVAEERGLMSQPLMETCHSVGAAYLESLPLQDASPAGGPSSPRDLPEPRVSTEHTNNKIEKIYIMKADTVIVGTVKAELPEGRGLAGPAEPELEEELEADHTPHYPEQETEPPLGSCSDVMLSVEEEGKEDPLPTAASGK
The assay is described as follows: flow cytometry, KI-JK cells, experiment N = 1. (Flow cytometry measures light scatter and fluorescence of single cells or particles in a stream.)

The target of assay [2] is T1, human CD30. In words: cell-based or functional assay.
Assay [3] has as its target T1, human CD30. The assay is described as follows: flow cytometry, KI-JK cells (ALCL), average of 3 tests. Here is the method:
(§1) Cells (3×10⁴ cells/well) were incubated in polystyrene 96-well round-bottom plates (Greiner bio-one, cat. no. 650180) with serial dilutions of antibodies (range 0.0046 to 10 μg/mL in 3-fold dilution steps) in 50 μL staining buffer at 4° C. for 30 min. After washing twice in staining buffer, cells were incubated with 50 μL secondary antibody at 4° C. for 30 min. […] Next, cells were washed twice in staining buffer, resuspended in 100 μL staining buffer supplemented with TO-PRO-3 iodide (Thermo Fisher Scientific; cat. no. T3605; 1:8000 dilution) and analyzed on a FACSCelesta flow cytometer (BD Biosciences, USA). Live cells were gated based on FSC/SSC and absence of TOPRO-3 staining. Binding curves were analyzed by non-linear regression of log-transformed data (sigmoidal dose-response with variable slope, four parameters) using GraphPad Prism V7.02 software (GraphPad Software, San Diego, CA, USA).

Assay [4] addresses T1, human CD30. The assay is described as follows: flow cytometry, SR-786 cells (ALCL), average of 3 tests. How it is done: as §1
In assay [5] the target is T1, human CD30. The assay is described as follows: flow cytometry, L-82 cells (ALCL), average of 2 tests. Here is the method:
as §1

Assay [6] has as its target T1, human CD30. In words: flow cytometry, L-540 cells (HL), average of 3 tests. How it is done: as §1
Assay [7] concerns the target T2, rhesus monkey (Macaca mulatta) CD30 (rhesus monkey, UniProt P28908 19-595 (human entry)).
T2 construct: also called mmCD30
T2 chain: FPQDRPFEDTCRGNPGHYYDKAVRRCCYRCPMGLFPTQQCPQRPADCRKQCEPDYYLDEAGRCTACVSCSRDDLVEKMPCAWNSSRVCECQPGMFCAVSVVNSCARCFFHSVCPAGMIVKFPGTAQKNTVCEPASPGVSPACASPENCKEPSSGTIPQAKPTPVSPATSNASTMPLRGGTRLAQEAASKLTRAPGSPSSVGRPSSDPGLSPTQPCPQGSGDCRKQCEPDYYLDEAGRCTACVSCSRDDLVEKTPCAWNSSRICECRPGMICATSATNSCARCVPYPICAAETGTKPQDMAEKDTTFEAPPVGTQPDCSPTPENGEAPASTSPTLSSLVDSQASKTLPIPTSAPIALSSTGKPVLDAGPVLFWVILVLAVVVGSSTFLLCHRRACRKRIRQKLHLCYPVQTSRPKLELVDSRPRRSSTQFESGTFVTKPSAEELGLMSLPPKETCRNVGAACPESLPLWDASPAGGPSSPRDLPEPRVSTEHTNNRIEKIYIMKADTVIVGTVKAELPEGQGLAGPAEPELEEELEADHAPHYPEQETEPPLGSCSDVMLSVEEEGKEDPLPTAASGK
In words: flow cytometry, HEK293 cells; panel title 'HEK293 rhesus CD30'. How it is done: Cells (3×10⁴ cells/well) were incubated in polystyrene 96-well round-bottom plates (Thermo Scientific, cat. no. 163320) with serial dilutions of antibodies (ranging from 0.0002 to 50 μg/mL in 4-fold dilution steps) in 50 μL staining buffer at 4° C. for 30 min. Experiments were performed in technical duplicate. After washing twice in staining buffer, cells were incubated in 50 μL secondary antibody at 4° C. for 30 min. As a secondary antibody, R-PE-conjugated goat-anti-human IgG (Jackson ImmunoResearch, UK; cat. no. 109⁻¹¹⁶-098) diluted 1:200 in staining buffer was used. Cells were washed twice in staining buffer, resuspended in 30 μL staining buffer containing 0.4% EDTA and the ToPro-3 viability marker (Invitrogen, cat. no. T3605) diluted 1:10,000. Cells were analyzed on an iQue Screener (Intellicyt Corporation, USA). Binding curves were analyzed using non-linear regression (sigmoidal dose-response with variable slope) using GraphPad Prism V9.0.0 software (GraphPad Software, San Diego, CA, USA).

Assay [8] has as its target T1, human CD30. In words: flow cytometry, L-540 cells (HL), range of 3 tests. How it is done: as §1
For assay [9], the target named is T1, human CD30. In words: flow cytometry, L-1236 cells (HL), range of 3 tests. How it is done: as §1
Assay [10] addresses T1, human CD30. The assay is described as follows: flow cytometry, JVM-2 cells (MCL), range of 3 tests. How it is done: as §1
Assay [11] concerns the target T1, human CD30. In words: flow cytometry, SUP-T1 cells (TLL), range of 2 tests. How it is done:
as §1

Assay [12] has as its target T1, human CD30. In words: flow cytometry, HDLM-2 cells (HL), range of 3 tests. Here is the method: as §1

Changes are numbered by the printed parent chain.

B1: bsG1-huCD3-FEALxCD30-MDX060-FEAR (bispecific antibody, human IgG1, kappa, lambda)
heavy 1: not shown
light 1: not shown
heavy 2: QVQLQQWGAGLLKPSETLSLTCAVYGGSFSAYYWSWIRQPPGKGLEWIGDINHGGGTNYNPSLKSRVTISVDTSKNQFSLKLNSVTAADTAVYYCASLTAYWGQGSLVTVSSASTKGPSVFPLAPSSKSTSGGTAALGCLVKDYFPEPVTVSWNSGALTSGVHTFPAVLQSSGLYSLSSVVTVPSSSLGTQTYICNVNHKPSNTKVDKRVEPKSCDKTHTCPPCPAPEFEGGPSVFLFPPKPKDTLMISRTPEVTCVVVAVSHEDPEVKFNWYVDGVEVHNAKTKPREEQYNSTYRVVSVLTVLHQDWLNGKEYKCKVSNKALPAPIEKTISKAKGQPREPQVYTLPPSREEMTKNQVSLTCLVKGFYPSDIAVEWESNGQPENNYKTTPPVLDSDGSFFLYSRLTVDKSRWQQGNVFSCSVMHEALHNHYTQKSLSLSPG
light 2: DIQMTQSPTSLSASVGDRVTITCRASQGISSWLTWYQQKPEKAPKSLIYAASSLQSGVPSRFSGSGSGTDFTLTISSLQPEDFATYYCQQYDSYPITFGQGTRLEIKRTVAAPSVFIFPPSDEQLKSGTASVVCLLNNFYPREAKVQWKVDNALQSGNSQESVTEQDSKDSTYSLSSTLTLSKADYEKHKVYACEVTHQGLSSPVTKSFNRGEC
notes: also called bsG1-huCD3xCD30-MDX060
For the molecule B1, in [1], a half-maximal response (EC50) required 0.16 µg/mL. Moreover, in assay [2], the “T-cell mediated cytotoxicity of Karpas-299 cells, IC50 average” value was 0.033 µg/mL and the “T-cell mediated cytotoxicity of Karpas-299 cells, maximum lysis average” value worked out at 53.7%.

B2: bsG1-huCD3-FEALxCD30-MDX060-FERR (bispecific antibody, human IgG1, kappa, lambda)
heavy 1: not shown
light 1: not shown
heavy 2: B1 heavy 2 with G231R, A260D
light 2: B1 light 2
notes: Bispecific IgG1 made by controlled Fab-arm exchange; also called bsIgG1-huCD3-FEALxCD30-MDX060-FERR; bsG1-huCD3×CD30-MDX060
On to B2, for which the EC50 – broadly, the concentration needed to bring the measured effect to its halfway point – in [3] is 0.191 µg/mL; in assay [4], 0.328 µg/mL; in assay [5], 0.2 µg/mL; in assay [6], 0.323 µg/mL; in assay [8] it was 0.202 to 0.469 µg/mL; in assay [9], 0.163 to 0.225 µg/mL. Further, the EC50 in assay [10] lay within 0.107 to 0.141 µg/mL; in [11], 0.257 to 0.434 µg/mL; in assay [12] it was 0.125 to 0.221 µg/mL. For the same molecule, the EC50 (read off the curve) (usually the concentration giving half of the maximal effect) in [7] was around 0.07 µg/mL. For the same molecule, in [2], the “T-cell mediated cytotoxicity of Karpas-299 cells, IC50 average” value came out at 0.029 µg/mL. Moreover, the “T-cell mediated cytotoxicity of Karpas-299 cells, maximum lysis average” value in [2] came to 52.3%.
